# According to US20240228595A1 (YALE UNIVERSITY, published 2024):
# Read-outs that look alike come from different tables or passages of the source.
# B1: Clone 13 (antibody, human IgG1, kappa, V domains shown)
# VH: EVQLVESGGGLVQPGGSLRLSCAASGFTFSGYSMNWVRQAPGKGLEWVAEINPSTGGTTDNQKFKARFTISRDNSKNTLYLQMNSLRAEDTAVYYCARSRGDYWGQGTLVTVSS
# VL: DIQMTQSPSSLSASVGDRVTITCRASESVEYYGTSLMQWYQQKPGKAPKLLIYAASNVESGVPSRFSGSGSGTDFTLTISSLQPEDFATYYCQQSRKVPWTFGQGTKVEIKR
# B2: Clone 6 (antibody, V domains shown)
# VH: QVQLQQSAAELARPGASVKMSCKASGYTFTSYTMHWVKQRPGQGLEWIGYINPTSGYTEYNQNFKDKTTLTADKSSSTAYMQLNSLTSEDSAVYYCAREGHRVGPAYWGQGTLVTVSA
# VL: not shown
# B3: Clone 16 (Clone6-KiH-Clone2) bispecific antibody (bispecific antibody)
# heavy 1: not shown
# light 1: DIVLTQSPASLAVSLGQRATISCRASESVDNYGISFMNWFQQTPGQPPKLLIYGSSNQGSGVPARFSGSGSGTDFSLNIHPMEEDDTAMYFCQQSKEVPYTFGGGTKLEIKRTVAAPSVFIFPPSDEQLKSGTASVVCLLNNFYPREAKVQWKVDNALQSGNSQESVTEQDSKDSTYSLSSTLTLSKADYEKHKVYACEVTHQGLSSPVTKSFNRGEC
# heavy 2: not shown
# light 2: DIVLTQSPASLAVSLGQRATISCRASESVEYYGTSLMQWYQQKPGQPPKVLIYAASNVESGVPARFSGSGSGTDFSLNIHPVEEDDIAMYFCQQSRKVPWTFGGGTKLEIKRSSASTKGPSVFPLAPSSKSTSGGTAALGCLVKDYFPEPVTVSWNSGALTSGVHTFPAVLQSSGLYSLSSVVTVPSSSLGTQTYICNVNHKPSNTKVDKKVEPKSC
# B4: Clone 2 (antibody, V domains shown)
# VH: EVQLQQSGPELVKPGASVKISCKASGYSFTGYSMNWMKQSPEKSLEWIGEINPSTGGTTDNQKFKAKATLTVDKSSSTAYMQLKSLTSEDSAVYYCARSRGDYWGQGTSVTVSS
# VL: DIVLTQSPASLAVSLGQRATISCRASESVEYYGTSLMQWYQQKPGQPPKVLIYAASNVESGVPARFSGSGSGTDFSLNIHPVEEDDIAMYFCQQSRKVPWTFGGGTKLEIKR
# Key:
# [1] = target: T1, SARS-COV-2 RBD-his tag protein (Sino Biological) (SARS-CoV-2, UniProt P0DTC2 319-541)
# [2] = target: T1, SARS-COV-2 RBD-his tag protein (Sino …); remark: listed apart in the source
# [3] = target: T1, SARS-COV-2 RBD-his tag protein (Sino …); remark: listed apart in the source
Binder,Kd [1] [nM],koff [1] [s⁻¹],kon [1] [M⁻¹ s⁻¹],Kd [2] [nM],koff [2] [s⁻¹],kon [2] [M⁻¹ s⁻¹],Kd [3] [nM],koff [3] [s⁻¹],kon [3] [M⁻¹ s⁻¹]
B1,4.17,0.000497,119000,–,–,–,–,–,–
B2,2.27,0.00611,2.69e+06,0.148,0.00056,3.77e+06,–,–,–
B3,2.95,0.00461,1.56e+06,–,–,–,–,–,–
B4,1.67,0.000853,511000,0.0441,7.09e-05,1.61e+06,0.00158,1.49e-07,94500
